According to US8877192B2, “Rage fusion proteins and methods of use” (TransTech Pharma, LLC, priority 2004, dated 2014):

Key:
S100b (S100) = target: T1, S100b (S100) (Homo sapiens, UniProt P04271); experiment: In vitro ligand binding (ELISA) to immobilized S100b; conditions: increasing dilutions of fusion protein; FIG. 7
T1 sequence (P04271 1-92): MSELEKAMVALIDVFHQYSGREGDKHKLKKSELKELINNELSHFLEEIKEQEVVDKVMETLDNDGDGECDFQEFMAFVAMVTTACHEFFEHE
Method: (§1) For example, the RAGE fusion protein may be used in a binding assay to identify potential RAGE ligands. In one example embodiment of such a binding assay, a known RAGE ligand may coated onto a solid substrate (e.g., Maxisorb plates) at a concentration of about 5 micrograms per well, where each well contains a total volume of about 100 microliters (μL). The plates may be incubated at 4° C. overnight to allow the ligand to absorb. Alternatively, shorter incubation periods at higher temperature (e.g., room temperature) may be used. […] The fusion protein bound to the immobilized ligand may be detected in a variety of ways. […] The bound complex may be detected by adding the alkaline phosphatase substrate, para-nitrophenylphosphate (PNPP), and measuring conversion of PNPP to para-nitrophenol (PNP) as an increase in absorbance at 405 nm. […] Binding was detected by the addition of an immunodetection complex containing a monoclonal mouse anti-human IgG1 diluted 1:11,000 to a final assay concentration (FAC) of 21 ng/100 μL, a biotinylated goat anti-mouse IgG diluted 1:500, to a FAC of […], and an avidin-linked alkaline phosphatase. […] Binding of the complex to the immobilized fusion protein was quantified by measuring conversion of PNPP to para-nitrophenol (PNP) which was measured spectrophotometrically at 405 nm. […]

amyloid-beta (Abeta) = target: T2, amyloid-beta (Abeta) (Homo sapiens, UniProt P05067); experiment: In vitro ligand binding (ELISA) to immobilized amyloid-beta; conditions: increasing dilutions of fusion protein; FIG. 7
T2 construct: Amyloid Beta (1-40) from Biosource; purchased Biosource
Method: as §1

T2 sequence (P05067 672-711 limits assumed): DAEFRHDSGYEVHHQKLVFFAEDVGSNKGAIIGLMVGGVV

B1: TTP-4000: four domain RAGE fusion protein (SEQ ID NO: 32): human RAGE amino acids 1-251 linked to CH2 and CH3 domains of human IgG (protein)
chain: MAAGTAVGAWALVLSLWGAVVGAQNITARIGEPLVLKCKGAPKKPPQRLEWKLNTGRTEAWKVLSPQGGGPWDSVARVLPNGSLFLPAVGIQDEGIFRCQAMNRNGKETKSNYRVRVYQIPGKPEIVDSASELTAGVPNKVGTCVSEGSYPAGTLSWHLDGKPLVPNEKGVSVKEQTRRHPETGLFTLQSELMVTPARGGDPRPTFSCSFSPGLPRHRALRTAPIQPRVWEPVPLEEVQLVVEPEGGAVAPPSVFLFPPKPKDTLMISRTPEVTCVVVDVSHEDPEVKFNWYVDGVEVHNAKTKPREEQYNSTYRVVSVLTVLHQDWLNGKEYKCKVSNKALPAPIEKTISKAKGQPREPQVYTLPPSRDELTKNQVSLTCLVKGFYPSDIAVEWESNGQPENNYKTTPPVLDSDGSFFLYSKLTVDKSRWQQGNVFSCSVMHEALHNHYTQKSLSLSPGK
- binding to immobilized S100b (absorbance at 405 nm) (S100b (S100)): specifically interact
- binding to immobilized amyloid-beta (absorbance at 405 nm) (amyloid-beta (Abeta)): specifically interact
